We go through four molecules from patent US10428140B2, “Anti-EphA4 antibody” (EISAI R&D MANAGEMENT CO., LTD., priority 2015, dated 2019).

“And” between values parts separate entries of the source, which are not always exact repeats. Equal values may be shown once.

Holding throughout (type): binding
In assay [1] the target is T1, human EphA4 (Homo sapiens, UniProt P54764).
T1 construct: made in house; not restated for the human SEAP-His protein
The experiment in a line: Affinity of humanized antibodies by SPR (Biacore T200). The following applies: human EphA4 extracellular region-SEAP-His; for ka / kd: 1:1 binding model; for Kd: KD=kd/ka. In outline:
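Humanized antibodies captured on protein A chip (antibody A via immobilized rat anti-mouse IgG1) at about 30 to 60 RU in HBS-EP; human EphA4 extracellular region-SEAP-His injected single-cycle at 0.6 to 50 nM, 120 s association, 900 s dissociation. KD = kd/ka from 1:1 binding fits.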

The target in assay [2] is T1, human EphA4. In words: Selectivity ELISA of humanized antibodies for human Eph receptor. The following applies: coated protein 1 nM; reference set to 100%. In outline: (§1)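 Read-out is A450 after TMB development stopped with 1N H2SO4. Plates bore anti-His-captured human Eph extracellular region-SEAP-His proteins at 1 nM final, made in Expi293F cells. Humanized antibody binding ran 1 h at room temperature before HRP-labeled anti-IgG detection.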

For a further assay, the target named is T2, human EphA1 (Homo sapiens, UniProt P21709).
T2 construct: a protein of the extracellular region of each human Eph receptor fused with the SEAP protein and the His tag; made in house; host or cells: Expi293F cells (culture supernatant)
T2 sequence (P21709 26-547 limits assumed): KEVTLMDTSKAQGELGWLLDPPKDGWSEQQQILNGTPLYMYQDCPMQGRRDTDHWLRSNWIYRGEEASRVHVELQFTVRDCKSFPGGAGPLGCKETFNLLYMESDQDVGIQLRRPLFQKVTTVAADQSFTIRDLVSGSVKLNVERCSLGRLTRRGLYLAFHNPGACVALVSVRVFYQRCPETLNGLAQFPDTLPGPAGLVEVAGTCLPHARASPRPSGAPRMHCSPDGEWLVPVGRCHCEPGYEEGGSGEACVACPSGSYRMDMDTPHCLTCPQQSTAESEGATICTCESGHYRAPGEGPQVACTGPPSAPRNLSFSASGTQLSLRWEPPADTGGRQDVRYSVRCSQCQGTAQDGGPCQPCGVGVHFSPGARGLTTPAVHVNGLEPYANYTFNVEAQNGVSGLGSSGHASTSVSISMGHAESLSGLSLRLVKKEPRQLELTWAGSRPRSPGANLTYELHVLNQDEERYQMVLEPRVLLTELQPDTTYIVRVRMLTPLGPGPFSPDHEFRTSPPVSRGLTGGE
The description is as above. The following applies: coated protein 1 nM. In outline: as §1

What is called Kd is the constant that tells how readily two partners part at equilibrium.

T1 sequence (P54764 20-547): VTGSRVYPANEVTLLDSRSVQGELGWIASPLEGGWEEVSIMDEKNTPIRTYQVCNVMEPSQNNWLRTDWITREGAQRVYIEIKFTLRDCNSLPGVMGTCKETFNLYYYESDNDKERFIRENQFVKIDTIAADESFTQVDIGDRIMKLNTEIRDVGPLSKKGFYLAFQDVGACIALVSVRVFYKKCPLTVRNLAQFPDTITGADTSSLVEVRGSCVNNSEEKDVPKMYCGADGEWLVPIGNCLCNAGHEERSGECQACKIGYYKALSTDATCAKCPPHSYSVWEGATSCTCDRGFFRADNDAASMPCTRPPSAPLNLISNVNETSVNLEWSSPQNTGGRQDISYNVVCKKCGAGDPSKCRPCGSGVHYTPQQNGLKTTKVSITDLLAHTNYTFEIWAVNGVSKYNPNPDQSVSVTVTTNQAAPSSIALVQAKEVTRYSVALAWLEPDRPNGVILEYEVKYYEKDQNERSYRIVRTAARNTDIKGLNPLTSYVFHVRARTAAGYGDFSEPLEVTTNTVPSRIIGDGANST

B1: 138 (antibody, V domains shown)
VH: QIQLVQSGSELKKPGASVKVSCKASGYTFTDYSMHWVRQAPGQGLKWMGWINTETGEPTYAQGFTGRFVFSLDTSVSTAYLQISSLKAEDTAVYYCARIPLYYYGSRYWYFDVWGQGTTVTVSS
VL: DIQMTQSPSSLSASVGDRVTITCRASENIYRNLAWYQQKPGKAPKLLVYAATNLADGVPSRFSGSGSGTDYTLTISSLQPEDFATYYCQHFWGTPWTFGQGTKVEIK
modifications: synthetic humanized antibody heavy chain variable region sequence; synthetic humanized antibody light chain variable region sequence
Take B1: in the assay with human EphA4 [1], the ka is 330000 M⁻¹ s⁻¹ and 290000 M⁻¹ s⁻¹; the kd is 0.00043 s⁻¹ and 0.00039 s⁻¹; the Kd is 1.3 nM and 1.4 nM. The “hEphA4-SEAP-: absorbance at 450 nm, percentage with respect to hEphA4-SEAP-His as 100%” value with human EphA4 [2] came to 100%. For the same molecule, the “hEphA1-SEAP-: absorbance at 450 nm, percentage with respect to hEphA4-SEAP-His as 100%” value in the assay with human EphA1 was determined as 5.2%.

B2: 141 (antibody, V domains shown)
VH: QVQLVQSGSELKKPGASVKVSCKASGYTFTDYSMHWVRQAPGQGLEWMGWINTETGEPTYADDFKGRFVFSLDTSVSTAYLQISSLKAEDTAVYYCARIPLYYYGSRYWYFDVWGQGTTVTVSS
VL: DIQMTQSPSSLSASVGDRVTITCRASENIYRNLAWYQQKPGKAPKLLVYAATNLADGVPSRFSGSGSGTDYTLTISSLQPEDFATYYCQHFWGTPWTFGQGTKVEIK
modifications: synthetic humanized antibody heavy chain variable region sequence; synthetic humanized antibody light chain variable region sequence
In the assay with human EphA4 [1], B2 yielded a ka of 390000 M⁻¹ s⁻¹, a kd of 0.00062 s⁻¹ and a Kd of 1.6 nM. The “hEphA4-SEAP-: absorbance at 450 nm, percentage with respect to hEphA4-SEAP-His as 100%” value in the assay with human EphA4 [2] is reported as 100%. In the assay with human EphA1, the “hEphA1-SEAP-: absorbance at 450 nm, percentage with respect to hEphA4-SEAP-His as 100%” value was found to be 5.3%.

B3: 142 (antibody, V domains shown)
VH: QVQLVQSGSELKKPGASVKVSCKASGYTFTDYSMHWVRQAPGQGLKWMGWINTETGEPTYADDFKGRFVFSLDTSVSTAYLQISSLKAEDTAVYYCARIPLYYYGSRYWYFDVWGQGTTVTVSS
VL: DIQMTQSPSSLSASVGDRVTITCRASENIYRNLAWYQQKPGKAPKLLVYAATNLADGVPSRFSGSGSGTDYTLTISSLQPEDFATYYCQHFWGTPWTFGQGTKVEIK
modifications: synthetic humanized antibody heavy chain variable region sequence; synthetic humanized antibody light chain variable region sequence
In the assay with human EphA4 [1], B3 gave a ka of 340000 M⁻¹ s⁻¹, a kd of 0.0005 s⁻¹ and a Kd of 1.5 nM. Further, the “hEphA4-SEAP-: absorbance at 450 nm, percentage with respect to hEphA4-SEAP-His as 100%” value with human EphA4 [2] is listed as 100%. The “hEphA1-SEAP-: absorbance at 450 nm, percentage with respect to hEphA4-SEAP-His as 100%” value with human EphA1 stood at 5.6%.

B4: 143 (antibody, V domains shown)
VH: QIQLVQSGSELKKPGASVKVSCKASGYTFTDYSMHWVRQAPGQGLKWMGWINTETGEPTYADDFKGRFVFSLDTSVSTAYLQISSLKAEDTAVYYCARIPLYYYGSRYWYFDVWGQGTTVTVSS
VL: DIQMTQSPSSLSASVGDRVTITCRASENIYRNLAWYQQKPGKAPKLLVYAATNLADGVPSRFSGSGSGTDYTLTISSLQPEDFATYYCQHFWGTPWTFGQGTKVEIK
modifications: synthetic humanized antibody heavy chain variable region sequence; synthetic humanized antibody light chain variable region sequence
In the assay with human EphA4 [1], B4 registered a ka of 350000 M⁻¹ s⁻¹, a kd of 0.00051 s⁻¹ and a Kd of 1.5 nM. Besides, the “hEphA4-SEAP-: absorbance at 450 nm, percentage with respect to hEphA4-SEAP-His as 100%” value with human EphA4 [2] turned out to be 100%. For the same molecule, the “hEphA1-SEAP-: absorbance at 450 nm, percentage with respect to hEphA4-SEAP-His as 100%” value in the assay with human EphA1 is 6.0%.
